Results: patent US20250326840A1 (QURE BIOTECHNOLOGY SHANGHAI, published 2025)
Read-outs that look alike come from different tables or passages of the source.

What was measured:
QP002 [1] = target: T1, QP002 (biotinylated in the blocking assays, sites not given); experiment: blocking ELISA: QP001.2 (CD47) coated, biotin-QP002 (SIRPα-FC) mixed with the antibody, HRP-streptavidin; blocked ligand: CD47
T1 construct: also called SIRPα-FC; Biotin-QP002

QP096 (human SIRPα V2 …) [2] = target: T2, QP096 (human SIRPα V2 ECD(E31-R370)-flag-his) (human); experiment: SPR, Biacore
T2 construct: the construct carries flag and his tags; also called SIRPαV2-Flag-his; Human SIRPα V2 (QP096)

QP094 (human SIRPα V1 …) [3] = target: T3, QP094 (human SIRPα V1 ECD(E31-R370)-flag-his) (human, UniProt P78324 31-370); experiment: SPR, Biacore
T3 construct: the construct carries flag and his tags; also called SIRPαV1-flag-his; SIRPαV1-his (QP094)

[4] = target: T4, QP100 (cyno SIRPα (G7PGS8) ECD(E29-R368)-flag-his) (cynomolgus); experiment: SPR, Biacore
T4 construct: the construct carries flag and his tags; also called cynoSIRPα-flag-his; Cynomolgus SIRPα (QP100)
T4 chain: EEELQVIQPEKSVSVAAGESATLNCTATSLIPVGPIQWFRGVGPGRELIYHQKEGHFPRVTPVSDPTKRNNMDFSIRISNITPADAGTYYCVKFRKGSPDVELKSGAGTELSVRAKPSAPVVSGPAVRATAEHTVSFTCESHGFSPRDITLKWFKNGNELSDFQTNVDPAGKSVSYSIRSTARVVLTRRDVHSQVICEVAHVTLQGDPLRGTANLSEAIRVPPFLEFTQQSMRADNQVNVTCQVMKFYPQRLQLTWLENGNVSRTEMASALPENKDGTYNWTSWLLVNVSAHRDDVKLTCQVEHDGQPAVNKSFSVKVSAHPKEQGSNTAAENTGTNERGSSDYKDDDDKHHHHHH

QP096 (human SIRPα V2 …) [5] = target: T2, QP096 (human SIRPα V2 …); experiment: binding ELISA, antigen coated
QP094 (human SIRPα V1 …) [6] = target: T3, QP094 (human SIRPα V1 …); experiment: binding ELISA, antigen coated
[7] = target: T5, QP273 (cynoSIRPα2-flag-his T-557-14) (cynomolgus); experiment: binding ELISA, antigen coated
T5 construct: also called cynomolgus SIRPα (QP273)
T5 chain: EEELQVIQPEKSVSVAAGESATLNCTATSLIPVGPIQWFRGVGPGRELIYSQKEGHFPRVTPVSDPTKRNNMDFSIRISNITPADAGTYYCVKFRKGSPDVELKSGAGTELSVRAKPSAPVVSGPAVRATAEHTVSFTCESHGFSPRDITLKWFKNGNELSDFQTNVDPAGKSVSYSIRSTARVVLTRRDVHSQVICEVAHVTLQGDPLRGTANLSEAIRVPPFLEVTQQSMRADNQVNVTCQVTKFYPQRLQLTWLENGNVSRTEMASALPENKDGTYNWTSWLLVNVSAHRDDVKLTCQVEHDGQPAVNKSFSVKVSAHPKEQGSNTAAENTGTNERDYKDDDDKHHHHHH

[8] = target: T6, QP271 (rhesus SIRPα1-flag-his T-557-28) (rhesus monkey); experiment: binding ELISA, antigen coated
T6 construct: also called rhesus monkey SIRPα (QP271); monkeySIRPα1-flag-his
T6 chain: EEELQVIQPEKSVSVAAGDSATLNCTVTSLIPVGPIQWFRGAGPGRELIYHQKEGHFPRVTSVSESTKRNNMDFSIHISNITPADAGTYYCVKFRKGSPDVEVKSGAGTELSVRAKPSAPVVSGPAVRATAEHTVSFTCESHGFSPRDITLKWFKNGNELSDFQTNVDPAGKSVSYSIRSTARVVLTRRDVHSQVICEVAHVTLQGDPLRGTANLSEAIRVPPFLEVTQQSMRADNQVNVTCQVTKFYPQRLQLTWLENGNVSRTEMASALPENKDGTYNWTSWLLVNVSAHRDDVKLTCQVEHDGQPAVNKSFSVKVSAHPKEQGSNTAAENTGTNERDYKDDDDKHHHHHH

[9] = target: T7, QP098 (cyno SIRPα (I7G9Z7) ECD(E31-R369)-flag-his) (cynomolgus); experiment: binding ELISA, antigen coated
T7 construct: the construct carries flag and his tags; also called cynoSIRPα (ECD); cynomolgus SIRPα
T7 chain: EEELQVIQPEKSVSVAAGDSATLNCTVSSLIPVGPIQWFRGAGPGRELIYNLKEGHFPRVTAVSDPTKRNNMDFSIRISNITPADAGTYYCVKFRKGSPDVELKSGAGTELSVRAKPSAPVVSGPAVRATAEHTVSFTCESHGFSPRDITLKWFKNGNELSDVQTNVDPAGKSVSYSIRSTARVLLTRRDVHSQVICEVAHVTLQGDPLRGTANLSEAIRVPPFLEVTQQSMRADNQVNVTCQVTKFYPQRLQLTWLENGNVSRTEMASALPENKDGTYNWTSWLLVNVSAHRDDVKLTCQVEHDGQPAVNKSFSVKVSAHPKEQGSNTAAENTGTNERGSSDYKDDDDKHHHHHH

[10] = target: T4, QP100 (cyno SIRPα (G7PGS8) …); experiment: binding ELISA, antigen coated
QP096 (human SIRPα V2 …) [11] = target: T2, QP096 (human SIRPα V2 …); experiment: SPR, Biacore; remark: listed apart in the source
QP094 (human SIRPα V1 …) [12] = target: T3, QP094 (human SIRPα V1 …); experiment: SPR, Biacore; remark: listed apart in the source
[13] = target: T5, QP273 (cynoSIRPα2-flag-his T-557-14); experiment: SPR, Biacore
[14] = target: T6, QP271 (rhesus SIRPα1-flag-his T-557-28); experiment: SPR, Biacore
[15] = target: T7, QP098 (cyno SIRPα (I7G9Z7) …); experiment: SPR, Biacore
PD-L1-mouse Fc protein [16] = target: T8, PD-L1-mouse Fc protein (human, UniProt Q9NZQ7 19-239, limits assumed); experiment: competitive ELISA, PD-1 coated, PD-L1-mouse Fc
PD-L1-his (QPP09) [17] = target: T9, PD-L1-his (QPP09) (human, UniProt Q9NZQ7 19-239, limits assumed); experiment: ELISA, PD-L1 captured by coated anti-HIS antibody
T9 construct: also called human PD-L1; human PD-L1 recombinant protein

PD-L1-his (QPP09) [18] = target: T9, PD-L1-his (QPP09); experiment: SPR, Biacore 8K
PD-L1-his (QPP09) [19] = target: T9, PD-L1-his (QPP09); experiment: SPR, Biacore 8K; remark: listed apart in the source
Rhesus PD-L1 = target: T10, Rhesus PD-L1 (rhesus monkey, UniProt F6PJN1 19-239); experiment: SPR, Biacore 8K
T10 construct: also called rhesus monkey PD-L1

PD-L1-mouse Fc protein [20] = target: T8, PD-L1-mouse Fc protein; experiment: competitive ELISA, CD80 coated, PD-L1-mouse Fc
[21] = target: T6, QP271 (rhesus SIRPα1-flag-his T-557-28); experiment: SPR, Biacore 8K
[22] = target: T7, QP098 (cyno SIRPα (I7G9Z7) …); experiment: SPR, Biacore 8K
PD-L1-mouse Fc protein [23] = target: T8, PD-L1-mouse Fc protein; experiment: blocking ELISA: QP1138 (PD1-FC) coated, PDL1-mouse FC mixed with the antibody, HRP anti-mouse IgG; blocked partner: PD-1; unit from the x axis Log(Conc.(nM))
QP003 (PDL1-his) = experiment: ELISA, QP003 (PDL1-his) captured on coated anti-his, anti-hFc detection; unit from the x axis Log(Conc.(nM))
[24] = target: T11, human PD-L1 on HCC827 cells (human, UniProt Q9NZQ7 19-290); experiment: FACS on HCC827 cells
T11 construct: whole, on cells; also called HCC827 cells naturally expressing human PD-L1

QP002 [25] = target: T1, QP002; experiment: blocking ELISA: CD47 FC (QP001) coated, biotin SIRPα-FC (QP002) mixed with the antibody, HRP-streptavidin; blocked ligand: CD47; unit from the x axis Log(Conc.(nM))
QP096 (human SIRPα V2 …) [26] = target: T2, QP096 (human SIRPα V2 …); experiment: SPR, Biacore T200
QP094 (human SIRPα V1 …) [27] = target: T3, QP094 (human SIRPα V1 …); experiment: SPR, Biacore T200
QP009 (SIRPα) = target: T12, QP009 (SIRPα) (Homo sapiens (Human)); experiment: ELISA of hybridoma supernatant on QP009
T12 construct: Entry includes a C-terminal flag-his tag as printed; also called recombinant protein QP009
T12 chain: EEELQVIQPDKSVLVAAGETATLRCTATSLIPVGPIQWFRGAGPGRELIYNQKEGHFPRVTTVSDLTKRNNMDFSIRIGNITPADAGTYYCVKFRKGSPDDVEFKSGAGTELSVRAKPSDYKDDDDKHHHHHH

T8 sequence (Q9NZQ7 19-239 limits assumed): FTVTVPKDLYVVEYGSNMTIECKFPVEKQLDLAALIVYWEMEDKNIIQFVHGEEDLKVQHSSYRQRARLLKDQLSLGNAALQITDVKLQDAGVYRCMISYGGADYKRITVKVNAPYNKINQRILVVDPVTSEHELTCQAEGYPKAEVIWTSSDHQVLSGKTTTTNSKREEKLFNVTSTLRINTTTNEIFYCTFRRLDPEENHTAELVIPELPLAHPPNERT
T9 sequence (Q9NZQ7 19-239 limits assumed): as above
T11 sequence (Q9NZQ7 19-290): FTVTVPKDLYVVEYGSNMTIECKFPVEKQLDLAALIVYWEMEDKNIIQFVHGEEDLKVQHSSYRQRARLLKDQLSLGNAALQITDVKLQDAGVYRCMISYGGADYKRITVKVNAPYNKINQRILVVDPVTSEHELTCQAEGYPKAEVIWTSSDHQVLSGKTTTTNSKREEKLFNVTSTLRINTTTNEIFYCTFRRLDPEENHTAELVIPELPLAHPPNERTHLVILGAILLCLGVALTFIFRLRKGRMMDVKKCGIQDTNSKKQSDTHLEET
QP003 (PDL1-his), sequence (chain, as listed by the source limits assumed): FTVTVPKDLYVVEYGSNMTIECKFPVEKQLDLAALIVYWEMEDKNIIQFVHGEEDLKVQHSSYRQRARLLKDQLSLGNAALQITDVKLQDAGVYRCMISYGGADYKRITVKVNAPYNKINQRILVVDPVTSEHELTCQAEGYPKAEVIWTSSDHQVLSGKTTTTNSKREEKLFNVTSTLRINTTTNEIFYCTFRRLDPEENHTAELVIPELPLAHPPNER

B1: QP256253 (antibody, human IgG4, V domains shown)
VH: QVQLVQSGAEVKKPGASVKVSCKASGYTFTNYWINWVRQAPGQGLEWIAMIDPSDSETHYNQIFKDRATLTTDTSTSTAYMELRSLRSDDTAVYYCAMDYGSLYAMDYWGRGTLVTVSS
VL: DIVLTQSPDSLAVSLGERATINCRASKSVSSSGYNYIFWYQQKPGQPPKLLIYLASNLDSGVPDRFSGSGSGTDFTLTISSLQAEDVAVYYCQHSRELPTFGQGTKLEIK
notes: also called humanized antibody QP256253; QP163164 humanized clone
- IC50 (read off the curve) (QP002 [1]): ~20 ng/mL
- Kd (QP096 (human SIRPα V2 …) [2]): 0.319 nM
- koff (QP096 (human SIRPα V2 …) [2]): 0.00109 s⁻¹
- kon (QP096 (human SIRPα V2 …) [2]): 3.42e+06 M⁻¹ s⁻¹
- Kd (QP094 (human SIRPα V1 …) [3]): 0.336 nM
- koff (QP094 (human SIRPα V1 …) [3]): 0.00079 s⁻¹
- kon (QP094 (human SIRPα V1 …) [3]): 2.35e+06 M⁻¹ s⁻¹
- Kd [4]: 77.9 nM
- koff [4]: 0.196 s⁻¹
- kon [4]: 2.52e+06 M⁻¹ s⁻¹
- EC50 (QP096 (human SIRPα V2 …) [5]): 1.19 ng/mL
- EC50 (QP094 (human SIRPα V1 …) [6]): 1.19 ng/mL
- EC50 [7]: 1.51 ng/mL
- EC50 [8]: 0.947 ng/mL
- EC50 [9]: 1.26 ng/mL
- EC50 [10]: 1.72 ng/mL
- Kd (QP096 (human SIRPα V2 …) [11]): 0.276 nM
- Kd (QP094 (human SIRPα V1 …) [12]): 0.26 nM
- Kd [13]: 12.7 nM
- Kd [14]: 7.97 nM
- Kd [15]: 26.8 nM

B2: Q-1801 (bispecific antibody, human IgG1, kappa, L234A L235A)
heavy: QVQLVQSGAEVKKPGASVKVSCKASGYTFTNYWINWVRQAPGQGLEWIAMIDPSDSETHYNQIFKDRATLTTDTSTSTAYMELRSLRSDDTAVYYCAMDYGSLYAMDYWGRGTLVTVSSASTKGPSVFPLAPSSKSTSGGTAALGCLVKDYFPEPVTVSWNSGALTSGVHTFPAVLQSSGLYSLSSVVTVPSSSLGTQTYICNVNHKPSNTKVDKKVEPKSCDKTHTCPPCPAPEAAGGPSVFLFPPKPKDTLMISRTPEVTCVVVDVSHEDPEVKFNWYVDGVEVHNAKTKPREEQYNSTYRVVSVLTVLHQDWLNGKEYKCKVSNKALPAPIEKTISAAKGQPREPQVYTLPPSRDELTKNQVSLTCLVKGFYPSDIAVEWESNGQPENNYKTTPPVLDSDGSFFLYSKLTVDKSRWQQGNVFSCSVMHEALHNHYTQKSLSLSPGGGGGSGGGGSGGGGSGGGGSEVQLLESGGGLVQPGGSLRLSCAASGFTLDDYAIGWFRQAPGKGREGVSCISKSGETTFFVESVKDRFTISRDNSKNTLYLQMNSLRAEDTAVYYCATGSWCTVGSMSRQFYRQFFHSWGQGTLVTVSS
light: DIVLTQSPDSLAVSLGERATINCRASQSVRSSGYNWIFWYQQKPGQPPKLLIYLASNRDSGVPDRFSGSGSGTDFTLTISSLQAEDVAVYYCQHSRELPTFGQGTKLEIKRTVAAPSVFIFPPSDEQLKSGTASVVCLLNNFYPREAKVQWKVDNALQSGNSQESVTEQDSKDSTYSLSSTLTLSKADYEKHKVYACEVTHQGLSSPVTKSFNRGEC
notes: Anti-SIRPα VH-CH1-Fc(L234A, L235A, K338A)-(G4S)4-anti-PD-L1 VHH heavy chain; kept as one molecule; also called CHO44; QP32820279
- IC50 (PD-L1-mouse Fc protein [16]): 0.904 nM
- EC50 (PD-L1-his (QPP09) [17]): 0.122 nM
- Kd (PD-L1-his (QPP09) [18]): 0.429 nM
- koff (PD-L1-his (QPP09) [18]): 0.000433 s⁻¹
- kon (PD-L1-his (QPP09) [18]): 1.01e+06 M⁻¹ s⁻¹
- Kd (PD-L1-his (QPP09) [19]): 0.431 nM
- koff (PD-L1-his (QPP09) [19]): 0.000433 s⁻¹
- kon (PD-L1-his (QPP09) [19]): 1.01e+06 M⁻¹ s⁻¹
- Kd (Rhesus PD-L1): 0.499 nM
- koff (Rhesus PD-L1): 0.000779 s⁻¹
- kon (Rhesus PD-L1): 1.56e+06 M⁻¹ s⁻¹
- IC50 (PD-L1-mouse Fc protein [20]): 0.742 nM
- Kd [21]: 0.522 nM
- koff [21]: 0.00303 s⁻¹
- kon [21]: 5.81e+06 M⁻¹ s⁻¹
- Kd [22]: 2.14 nM
- koff [22]: 0.0117 s⁻¹
- kon [22]: 5.46e+06 M⁻¹ s⁻¹
- IC50 (PD-L1-mouse Fc protein [23]): 0.382 nM
- EC50 (QP003 (PDL1-his)): 0.0307 nM
- EC50 [24]: 0.142 nM

B3: QP026027 (antibody, human IgG1, kappa)
heavy: not shown
light: QIVLTQSPAIMSASPGEKVTLTCSASSSVSSSYLYWYQQKPGSSPKLWIYSTSNLASGVPARFSGSGSGTSYSLTISSMEAEDAASYFCHQWSSYPRTFGAGTKLELKRTVAAPSVFIFPPSDEQLKSGTASVVCLLNNFYPREAKVQWKVDNALQSGNSQESVTEQDSKDSTYSLSSTLTLSKADYEKHKVYACEVTHQGLSSPVTKSFNRGEC
notes: also called KWAR23 (QP026027); control antibody KWAR23, human IgG1
- IC50 (QP002 [25]): 0.295 nM
- Kd (QP096 (human SIRPα V2 …) [26]): 12.3 nM
- koff (QP096 (human SIRPα V2 …) [26]): 0.0246 s⁻¹
- kon (QP096 (human SIRPα V2 …) [26]): 2.01e+06 M⁻¹ s⁻¹
- Kd (QP094 (human SIRPα V1 …) [27]): 5.12 nM
- koff (QP094 (human SIRPα V1 …) [27]): 0.00465 s⁻¹
- kon (QP094 (human SIRPα V1 …) [27]): 908000 M⁻¹ s⁻¹

B4: 71C10 (antibody, V domains shown)
VH: QVQLQQPGTELVRPGASVKLSCKASGYTFTNYWINWVKQRPGQGLEWIAMIDPSDSETHYNQIFKDKATLTVDKSSNTAYMQLSSLTSGDSAVYYCAMDYGSLYAMDYWGRGTSVTVSS
VL: DIVLTQSPASLAVSLGQRATISCRASKSVSSSGYNYIFWYQQKPGQPPKLLIYLASNLDSGVPARFSGSGSGTDFTLNIHPVEEEDAATYYCQHSRELPTFGGGTKLEIK
notes: Mouse hybridoma antibody tested as culture supernatant; also called hybridoma monoclonal antibody 71C10; single-cell clone 71C10
- binding result (QP009 (SIRPα)): binds
